Test results published in patent publication US20240352438A1, “MEANS AND METHODS FOR DETOXIFYING OCHRATOXIN A” (DSM Austria GmbH, priority 2021, published 2024).
Numbering of substitutions follows the chain as printed. Names may count otherwise.

B1: I308V/V355L: variant of the enzyme of SEQ ID NO: 318 having the mutation combination I308V/V355L (protein)
chain: MTTRTRILTAFLSLLAANACAADAAPAAPHTVVLRAARMFDGASGKLVDHPQLTIVGNKIVRIAQGDKAEVPAGAEVVDLGDATLLPGFIDAHVHLSGQSSDNWYGDFFDNMMRFPAEQALYGAYYARITLEAGFTSVRDVGSTDWVALGLRNAIDAGKVPGPRMLVSNYAVGSTGGHADQDPIPPHKLPLAGPLQGVCNGPEECRAAVRYQIKYGANVIKFMPSGGVLSLSDPVDAPELSQDEMNAVIGESHAWGRKVAAHAHGDKAAKMAVAAGVDSIEHGSFIEDDTLRAMKAKNVYLVPTISAVAHVEEKIGTFPPVIAEKGRAAAAHLRQTFRHAVQIGVPIALGTDAGLGAHGSNAREFRYMVENGLTPAQALLAGTANAARLLGTFDRVGTLEAGKLADVVAVPGNPIADITVTERPLFVMKDGVVVRRDAVR
modifications: exemplary polypeptide
B2: F318Y/V355L: variant of the enzyme of SEQ ID NO: 318 having the mutation combination F318Y/V355L (protein)
chain: B1 chain with V308I, F318Y
modifications: exemplary polypeptide
B3: 176 (protein)
chain: B1 chain with I184V, G354A, L355V
modifications: exemplary polypeptide
B4: 212 (protein)
chain: B1 chain with H50P, V308I, L355V
modifications: exemplary polypeptide
B5: 252 (protein)
chain: B1 chain with V308I, L355V, N361E
modifications: exemplary polypeptide
B6: 249 (protein)
chain: B1 chain with V308I, L355V, H358A
modifications: exemplary polypeptide
B7: 172 (protein)
chain: B1 chain with A171P, V308I, F318Y, G354A, L355V
modifications: exemplary polypeptide
B8: 205 (protein)
chain: B1 chain with V308I, I322S, L355V
modifications: exemplary polypeptide
B9: 233 (protein)
chain: B1 chain with D233S, V308I, L355V
modifications: exemplary polypeptide
B10: 191 (protein)
chain: B1 chain with V308I, G354T, L355V
modifications: exemplary polypeptide
B11: 185 (protein)
chain: B1 chain with V308I, A330V, L355V
modifications: exemplary polypeptide
B12: 171 (protein)
chain: B1 chain with A171P, G354A, L355V
modifications: exemplary polypeptide
B13: 223 (protein)
chain: B1 chain with K188E, V308I, L355V
modifications: exemplary polypeptide
B14: 161 (protein)
chain: B1 chain with V308A, G354A, L355V
modifications: exemplary polypeptide
B15: 254 (protein)
chain: B1 chain with D110K, K188D, V308I, L355V
modifications: exemplary polypeptide
B16: 204 (protein)
chain: B1 chain with V308I, I322Q, L355V
modifications: exemplary polypeptide
B17: 226 (protein)
chain: B1 chain with G226P, V308I, L355V
modifications: exemplary polypeptide
B18: 199 (protein)
chain: B1 chain with W104L, V308I, L355V
modifications: exemplary polypeptide
B19: 257 (protein)
chain: B1 chain with S284D, V308I, A329S, L355V
modifications: exemplary polypeptide
B20: 222 (protein)
chain: B1 chain with K188D, V308I, L355V
modifications: exemplary polypeptide
B21: 250 (protein)
chain: B1 chain with V308I, L355V, H358K
modifications: exemplary polypeptide
B22: 251 (protein)
chain: B1 chain with V308I, L355V, H358N
modifications: exemplary polypeptide
B23: 229 (protein)
chain: B1 chain with S230P, V308I, L355V
modifications: exemplary polypeptide
B24: 178 (protein)
chain: B1 chain with V308A, F318Y, G354A, L355V
modifications: exemplary polypeptide
B25: 236 (protein)
chain: B1 chain with S284D, V308I, L355V
modifications: exemplary polypeptide
B26: 215 (protein)
chain: B1 chain with N103L, V308I, L355V
modifications: exemplary polypeptide
B27: 170 (protein)
chain: B1 chain with A171P, V308A, G354A, L355V
modifications: exemplary polypeptide
B28: 228 (protein)
chain: B1 chain with S230D, V308I, L355V
modifications: exemplary polypeptide

experiment: OTA detoxification activity assay (specific activity, fluorescence reduction ex/em 390/450 nm); assay type: biochemical; details: pH 6
Experimental: To determine the specific activity of recombinant target polypeptides produced e.g. as described in Example 2 above in units per liter (U/L), ochratoxin A (OTA) detoxification activity assays were performed. One unit is defined as the amount of enzyme necessary for degradation of 1 μmol or OTA in 1 min when using a starting OTA concentration of […].
OTA detoxification activity assays were set up in a final volume of the reaction mixture of […], containing the recombinant enzyme preparation (preferably diluted to yield a volumetric activity of 1-10 mU/L), and 200 ng/mL OTA in 100 mM sodium phosphate buffer.
Specific activities were determined at pH 6.0 and pH 7.5. As soon as all components of the reaction mixture were mixed, OTA degradation was followed at 37° C. on a fluorescence spectrophotometer (BioTek Synergy H1 MFD Multimode microplate reader) by following the reduction in fluorescence at ex/em 390 nm/450 nm. For work performed at pH 6.0 and 7.5, a 100 mM sodium phosphate buffer was used.
For calculation of the specific activity, the initial linear part of the recorded fluorescence reduction curve was used. In addition to the fluorescence-based method described above, OTA degradation was also determined by using the HPLC-MS method as described by Dellafiora et al. 2020, Toxins 12, 258, essentially confirming the fluorescence-based results. Genes encoding either of the indicated SEQ ID NOs are expressed as described herein and the specific activities for the obtained polypeptide preparation are exemplarily shown in Table 8. Analogously, enzymatic activities using either ochratoxin B, C or TA as substrate or can be found.

Row | Molecule | % of the activity of the non-mutated enzyme of SEQ ID NO: 318 at pH 6 [%]
1 | B1 | 209
2 | B2 | 197

same assay, conditions: pH 6.0; SEQ ID NO: 1 = 100%

Row | Molecule | Specific OTA detoxification activities in % compared to the enzyme of SEQ ID NO: 1, pH 6.0 [%]
3 | B3 | 112
4 | B4 | 46
5 | B5 | 32
6 | B6 | 21
7 | B7 | 62
8 | B8 | 52
9 | B9 | 11
10 | B10 | 21
11 | B11 | 32
12 | B12 | 69
13 | B13 | 14
14 | B14 | 132
15 | B15 | 32
16 | B16 | 41
17 | B17 | 19
18 | B18 | 9
19 | B19 | 34
20 | B20 | 8
21 | B21 | 17
22 | B22 | 53
23 | B23 | 21
24 | B24 | 85
25 | B25 | 19
26 | B26 | 27
27 | B27 | 49
28 | B28 | 23

same assay, conditions: pH 7.5

Row | Molecule | % of the activity of the non-mutated enzyme of SEQ ID NO: 318 at pH 7.5 [%]
29 | B1 | 189
30 | B2 | 138

same assay, conditions: pH 7.5; SEQ ID NO: 1 = 100%

Row | Molecule | Specific OTA detoxification activities in % compared to the enzyme of SEQ ID NO: 1, pH 7.5 [%]
31 | B3 | 95
32 | B4 | 17
33 | B5 | 13
34 | B6 | 26
35 | B7 | 70
36 | B8 | 24
37 | B9 | 17
38 | B10 | 28
39 | B11 | 18
40 | B12 | 37
41 | B13 | 16
42 | B14 | 110
43 | B15 | 15
44 | B16 | 24
45 | B17 | 22
46 | B18 | 34
47 | B19 | 15
48 | B20 | 20
49 | B21 | 21
50 | B22 | 33
51 | B23 | 15
52 | B24 | 88
53 | B25 | 15
54 | B26 | 20
55 | B27 | 32
56 | B28 | 19
